# Data reported in PMC12377726 (Proceedings of the National Academy of Sciences of the …, 2025).
# Changes are numbered by the printed parent chain.
# B1: G001_gp1_V10_VRC01c_164 (antibody, V domains shown)
# VH: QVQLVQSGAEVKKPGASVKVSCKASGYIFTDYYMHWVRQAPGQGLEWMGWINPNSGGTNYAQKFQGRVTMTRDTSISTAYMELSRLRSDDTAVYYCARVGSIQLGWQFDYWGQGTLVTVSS
# VL: EIVMTQSPATLSVSPGERATLSCRASQSVSSNLAWYQQIPGQAPRLLIYGTSTRATGIPARFSGSGSGTEFTLTISSLQSEDFAVYYCQQYETFGQGTKLEIK
# B2: G001_gp1_V08_VRC01c_2021-0075 (antibody, V domains shown)
# VH: QVQLVQSGAEVKKPGASVKVSCKASGYTFTDYYIHWVRQAPGQGLEWMGWINPNSGGPNYAQKFQDWVTMTRDTSISTAHMELSSLRSDDTAVYYCARGVAHTGFEFGYWGQGTLVTVSS
# VL: DIQMTQSPSTLSASVGDRVTITCRASQSISSWLAWYQQKPGKAPKLLIYKASTLESGVPSRFSGSGSGTEFTLTINSLQPDDFATYYCQQYETFGQGTKVEIK
# B3: G001_gp1_V10_VRC01c_177 (antibody, V domains shown)
# VH: not shown
# VL: B2 VL with S28T, K50D, T53S, N76T, Q96P, E101D
# B4: G001_gp1_V10_VRC01c_162 (antibody, V domains shown)
# VH: QVQLVQSGAEVKNPGASVKVSCKASGYTFSGYYMHWVRQAPGQGLEWMGWINPNSGGTNYAQKFQGRVTMTRDTSISTAYMALSRLRSDDTAVYYCARPAPYDSSGYNWGYWGQGTLVTVSS
# VL: B2 VL with I29M, S30N, S31N, N76S, I102V
# B5: G001_gp1_V08_VRC01c_2021-0076 (antibody, V domains shown)
# VH: QVQLVQSGAEVKKPGASVKVSCKASGYTFTDYYIHWVRQAPGQGLEWMGWINPNSGGTNYARKFQGRVTMTRATSISTVYMELSRLRSDDTAVYYCARGYCTVGWCFDLWGRDTLVTVSS
# VL: B2 VL with S30G, S31N, K42R, K50Q, T53S, L54S, N76S
# B6: G001_gp1_V10_VRC01c_173 (antibody, V domains shown)
# VH: QVQLVQSGADVKKPGASVKVSCKASGYTLTGYYMHWVRQAPGQGLEWMGWINANSGGTNYAQKFQGRVTMTRDTSISTVYMELSRLRSDDTAVYYCAHRAGYCSGGGCSWYFDLWGRGTLVTVSS
# VL: B2 VL with I29S, S31G, T53S, N76S, T93A
# B7: G001_gp1_V10_VRC01c_169 (antibody, V domains shown)
# VH: QVHLVQSGAEVKKPGASVKVSCKASGYTFTDDYIHWLRQAPGQGLEWMGWINPYSGGTNYAQKFQGRVTMTRDTSINTAYMELSRLRSDDTAVYYCARYQSTFYFDYWGQGTLVTVSS
# VL: B2 VL with I2F, I29L, T53S, N76S, F83S, Y86F, V100L
# B8: G001_gp1_V10_VRC01c_161 (antibody, V domains shown)
# VH: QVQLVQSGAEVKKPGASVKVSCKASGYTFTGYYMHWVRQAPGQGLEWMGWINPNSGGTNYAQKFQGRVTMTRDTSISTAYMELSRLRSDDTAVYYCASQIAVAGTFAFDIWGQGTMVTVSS
# VL: B2 VL with T53S, N76S, E92Y, V100L
# B9: G001_gp1_V10_VRC01c_167 (antibody, V domains shown)
# VH: QVQLVQSGAEVKKPGASVKVSCKASGYTFTGYYMHWVRQAPGQGLEWMGWINPNSGGTNYAQKFQGRVTMTRDTSITTAYMELTRLISDDTAVYYCASPASIPAAGSFAFDIWGQGTMVTVSS
# VL: EIVLTQSPGTLSLSPGERATLSCRASQSVGSSYLTWYQQKPGQAPRLLIYGASSRATGIPDRFSGSGSGTDFTLTISGLEPEDFAVYYCQQYETFGQGTKVEIK
# B10: G001_gp1_V10_VRC01c_170 (antibody, V domains shown)
# VH: QVQLVQSGAEVKKPGASVKVSCKASGYTFTDYYMHWVRQAPGQGLEWMGWINPNSGGTNYAQKFQDRVTMTRDTSISTGYMELRRLRSDDTAVYYCASHHLTSQGPWWFDPWGQGTLLTVSS
# VL: B9 VL with G30S, T35V, S66R, G78R, P81S, Y88F
# B11: G001_gp1_V10_VRC01c_172 (antibody, V domains shown)
# VH: QVQLVQSGAEVKKPGASVKVSCKASGYTFTGYYFYWVRQAPGQGLEWMGWINPNSGGTNSPQKFQGRVSMTRDTSISTAYMEVSSLRSDDTAVYYCARRFTSMGVALDYWGQGTLVTVSS
# VL: B9 VL with G30S, Y33S, T35A, Y50F, A52T, G78R, E93D, T94S, K100R, V101L
# B12: G001_gp1_V10_VRC01c_171 (antibody, V domains shown)
# VH: QVQLVQSGAEVKRPGASVKVSCKASGYTFTDYYIHWVRQAPGQGLEWMGWINPNSGGTNYARKFQGRVTMTRHTSIGTAYMELSRLRSDDTAVYYCARHIVAAGTWAFDIWGQGTMVTVSS
# VL: B9 VL with G30S, T35A, S64R, G78R
# B13: G001_gp1_V10_VRC01c_163 (antibody, V domains shown)
# VH: not shown
# VL: DIVMTQSPDSLAVSLGERATINCKSSQSVYYSSNKKNYLAWYQQKPGQPPKLLIYWTSTRESGVPDRFSGSGSGTDFTLTISSLQAEDVAVYYCQQYWTFGQGTKVEIK
# B14: G001_gp1_V10_VRC01c_159 (antibody, V domains shown)
# VH: QVQLVQSGAEVKKPGASVKVSCKASGYTFADYYIHWVRQAPGQGLEWMGWINPNSGGTNYAQKFQGRVTMTRDTSITTAYMELSRLGSDDTAVYYCARAYYGDYGDYWGQGTLVTVSS
# VL: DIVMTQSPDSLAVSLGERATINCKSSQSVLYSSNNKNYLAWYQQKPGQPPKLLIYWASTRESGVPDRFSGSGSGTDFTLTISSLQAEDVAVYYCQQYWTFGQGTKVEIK
# B15: G001_gp1_V10_VRC01c_182 (antibody, V domains shown)
# VH: QLQLVQSGAEVKKPGASVKVSCQASGFTFSGHYMHWVRQAPGHGLEWMGWINTNSGGTNYARKFQGRVTMTRDTSISTAYMELSRLRSDDTAVYYCATSVWFGASVWNFDNWGQGSLVTVSS
# VL: ENVLTQSPATLSLSPGERATLSCRASQSVSTHNLAWYQQKPGQAPRLLIYGVFSRATGIPDRFSGSGSGTDFTLTISSLEPEDTAVYYCQQYETFGQGTNVEIK
# B16: G001_gp1_V08_VRC01c_2021-0074 (antibody, V domains shown)
# VH: QVQLVQSGAEVKKPGASVKVSCKASGYTFTDYYMHWVRQAPGQGLEWMGWINPNSGGTNYAQKFQGWVTMTRDTSVSTAYMELRRLRSDDTAVYYCASGRGSSGWALDYWGQGTLVTVSS
# VL: DIQMTQSPSSLSASVGDRVTITCQASQDISNYLNWYQQKPGKAPKLLIYDASILETGVPSRFSGSGSGTEFTFTISSLQPEDIATYYCQQYEAFGQGTKLEIK
# B17: G001_gp1_V10_VRC01c_174 (antibody, V domains shown)
# VH: QVQLVQSGAEVKKPGATVKVSCKASGYTLTDYYMHWVRQAPGQGLEWMGWMNPNSGGTNYGRKFQGRVTMTRDTSINTAYMELSRLRSDDTAVYFCARAREKWPFDYWGQGTLVTVSS
# VL: B16 VL with S9A, L33V, Y49N, D50G, I53N, E70D, A93N, Q96P, L100V, E101D
# B18: G001_gp1_V10_VRC01c_160 (antibody, V domains shown)
# VH: QVQLVQSGAEVKKPGASMKVSCEASGYTFTDYYMHWVRQAPGQGLEWMGWINPNSGGTNYAQKFQGRVTMTRDTSISTAYMELSRLRSDDTAVYYCATSIRDYLSGKVWYLGLWGRGTLVTVSS
# VL: B16 VL with I53N, E70D, S76T, A93T, L100V
# B19: G001_gp1_V10_VRC01c_181 (antibody, V domains shown)
# VH: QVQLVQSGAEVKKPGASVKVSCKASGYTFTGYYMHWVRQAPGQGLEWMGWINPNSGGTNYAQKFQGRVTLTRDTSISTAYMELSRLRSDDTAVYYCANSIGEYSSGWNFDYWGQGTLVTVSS
# VL: B16 VL with D50Y, I53N, E70D, E92G, A93T
# B20: G001_gp1_V08_VRC01c_2021-0078 (antibody, V domains shown)
# VH: QVQLVQSGAEVKKPGASVKVSCKASGYTFTGYYMHWVRQAPGQGLEWMGWINPNSGGTNFAQKFQGRVTMTRGTSITTTYMELSRLRSDDTAVYYCARVSQYRTGWYFGYWGQGTLVTVSS
# VL: B16 VL with I53N, E70D, A93F, Q96G, L100V
# B21: G001_gp1_V08_VRC01c_2021-0077 (antibody, V domains shown)
# VH: QVQLVQSGAEVKKPGASVKVSCKASGYTFTDYYMHWVRQASGQGLEWMGWINPNSGGTNYAQEFQGRVTMTRDTSISTAYMELSRLRYDDTAVYYCASGGYSRTWSFNIWGLGTMVTVSS
# VL: B16 VL with N31T, S52T, I53N, E70D, A93T, K99R
# B22: G001_gp1_V08_VRC01c_2021-0081 (antibody, V domains shown)
# VH: QVQLVQSGAEVKKPGASVKVSCKASGYTFTDHYMHWVRQAPGQGLEWMGWINPNSGGTNYAQKFQGWVTMTRDTSVSTAYMEVRRLRSDDTAVYYCAIIHYRRSSWEFAYWGQGTLVTVSS
# VL: B16 VL with I21V, Y32S, D50G, I53N, E70D, A84G, A93T, K103R
# B23: G001_gp1_V10_VRC01c_175 (antibody, V domains shown)
# VH: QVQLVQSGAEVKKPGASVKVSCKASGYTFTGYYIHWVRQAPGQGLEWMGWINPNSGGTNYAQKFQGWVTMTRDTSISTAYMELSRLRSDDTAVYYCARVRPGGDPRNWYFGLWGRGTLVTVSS
# VL: B16 VL with I53N, E70D, Y91W, E92D, A93T
# B24: G001_gp1_V10_VRC01c_166 (antibody, V domains shown)
# VH: not shown
# VL: B16 VL with I53N, E70D, E92N, A93T
# B25: G001_gp1_V10_VRC01c_176 (antibody, V domains shown)
# VH: QVQLVQSGAEVKRPGASVKVSCRASGYTFTGYYMHWVRQAPGQGLEWMGWINPNSGGTNYAQKFQGRVTMTRDTSITTAYMELSRLNYDDTAVYYCARGDDSSAWRFHSWGQGTLITVSS
# VL: B16 VL with I29S, I53N, E70D, A93T, Q96G, L100V
# B26: G001_gp1_V08_VRC01c_2021-0082 (antibody, V domains shown)
# VH: QVQLVQSGTEVKKPGASVKVSCKASGYTFTGYYIHWVRQAPGQGLEWMGWINPNSGGTNYAQKFQGWVTMTRDTSISTAYMELRRLTSVDTAVYYCARARSGYSSGWYWAYWGQGTLVTVSS
# VL: B16 VL with I53N, E70D, A93F, Q96G, L100V
# B27: G001_gp1_V10_VRC01c_168 (antibody, V domains shown)
# VH: QVQLVQSGAEVKKPGASVKVSCKASGYTFTGYHIHWVRQAPGQGLEWMGWINPNSGGTNYARKFQGRVTMTRDTSISTAYMELSRLNSDDTAVYYCAFPLGIRTTGRSWYFDLWGRGTLVTVSS
# VL: B16 VL with L46I, I53N, S63R, E70D, A93T, Q96G, L100V
# Molecular target: eOD-GT8 (engineered outer domain germline-targeting version 8), monomer (HIV-1 gp120 engineered outer domain, …)
row,Binder,binding result
1,B1,binds
2,B2,binds
3,B3,binds
4,B4,binds
5,B5,binds
6,B6,binds
7,B7,binds
8,B8,binds
9,B9,binds
10,B10,binds
11,B11,binds
12,B12,binds
13,B13,binds
14,B14,binds
15,B15,binds
16,B16,binds
17,B17,binds
18,B18,binds
19,B19,binds
20,B20,binds
21,B21,binds
22,B22,binds
23,B23,binds
24,B24,binds
25,B25,binds
26,B26,binds
27,B27,binds
